Laboratory results from patent publication US8008542B2, “Compositions, cells, and plants that include BKI1, a negative regulator of BRI1-mediated BR signaling” (The Salk Institute for Biological Studies, priority 2007, dated 2011).

How the values were obtained:
[1] = molecular target: kinase-inactive BRI1 (mBRI1-KD) (Arabidopsis thaliana, UniProt O22476, K911E); conditions: yeast two-hybrid, ONPG liquid culture assay
Procedure: (§2) A ProQuest Two-Hybrid system with Gateway technology (Invitrogen) was used. […] The full-length (BKI1-FL), and various truncated proteins, 1-252 (BKI1-ΔCT1), 1-299 (BKI1-ΔCT2), and 253-337 (BKI1-CT) of BKI1 were cloned into the pEXPAD502 vector. The kinase domain of NIK1 (NIK1-KD) (Fontes et al. (2004) Genes Dev. 18:2545), BAK1 (BAK1-KD), CLV1 (CLV1-KD), BRL1 (BRL1-KD), BRL3 (BRL3-KD), full length TTL, and full-length BIN2 were cloned into the pDBLeu vector. Interactions were tested on SD medium minus Leu, Trp, and His, and containing 25 mM 3-Amino-1,2,4-Triazole (3AT), using the yeast strain MaV203 according to the manufacturer's manual.

BAK1 = molecular target: T1, BAK1 (Arabidopsis thaliana, UniProt Q94F62); experiment: Yeast two-hybrid interaction with BAK1-KD; format: binding
T1 construct: kinase domains of other receptor-like kinases tested, including BAK1 and NIK1; expressed in transfected cells; host or cells: yeast strain MaV203
T1 sequence (Q94F62 289-576 limits assumed): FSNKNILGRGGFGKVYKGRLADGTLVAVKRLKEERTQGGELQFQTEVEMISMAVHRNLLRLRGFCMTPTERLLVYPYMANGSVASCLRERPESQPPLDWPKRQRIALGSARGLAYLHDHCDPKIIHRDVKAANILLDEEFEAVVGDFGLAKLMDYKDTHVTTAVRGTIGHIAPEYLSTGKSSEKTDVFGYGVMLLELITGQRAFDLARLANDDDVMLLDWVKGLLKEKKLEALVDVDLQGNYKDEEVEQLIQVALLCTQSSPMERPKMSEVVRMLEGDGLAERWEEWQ
Procedure: as §2

BRL3 = molecular target: T2, BRL3 (Arabidopsis thaliana, UniProt Q9LJF3); experiment: Yeast two-hybrid interaction with BRL3-KD; format: binding
T2 construct: expressed in transfected cells; host or cells: yeast strain MaV203
T2 sequence (Q9LJF3 858-1136 limits assumed): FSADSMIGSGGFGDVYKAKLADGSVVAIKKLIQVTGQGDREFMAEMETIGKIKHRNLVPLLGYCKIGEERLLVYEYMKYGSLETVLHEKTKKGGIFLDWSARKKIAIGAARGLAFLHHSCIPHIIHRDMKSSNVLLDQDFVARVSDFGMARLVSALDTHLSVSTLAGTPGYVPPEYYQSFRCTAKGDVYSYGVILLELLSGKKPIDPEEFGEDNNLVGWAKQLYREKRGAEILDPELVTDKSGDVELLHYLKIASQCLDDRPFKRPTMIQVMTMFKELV
Procedure: (§1) BKI1 fused with GAL4-AD (BKI1-pEXAD502) interacts with the intracellular domain of BRI1 (BRI1-KD), but not CLV1 (CLV1-KD), BRL1 (BRL1-KD), and BRL3 (BRL3-KD), fused with GAL4-DB (in pDBLeu) in yeast. pDBLeu was used as a negative control. Each spot from left to right contains 10 μl yeast cell culture with OD600=0.2, 0.04, 0.008, and 0.0016.

BRL1 = molecular target: T3, BRL1 (Arabidopsis thaliana, UniProt Q9ZWC8); experiment: Yeast two-hybrid interaction with BRL1-KD; format: binding
T3 construct: expressed in transfected cells; host or cells: yeast strain MaV203
T3 sequence (Q9ZWC8 859-1147 limits assumed): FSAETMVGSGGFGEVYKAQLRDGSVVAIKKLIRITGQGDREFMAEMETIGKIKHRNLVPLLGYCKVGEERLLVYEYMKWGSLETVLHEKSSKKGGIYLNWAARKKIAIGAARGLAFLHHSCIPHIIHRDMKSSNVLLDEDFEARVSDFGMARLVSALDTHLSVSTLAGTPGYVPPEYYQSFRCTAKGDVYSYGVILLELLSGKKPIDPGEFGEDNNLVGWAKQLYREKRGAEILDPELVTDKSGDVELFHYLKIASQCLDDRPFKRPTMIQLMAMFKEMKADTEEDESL
Procedure: as §1

NIK1 = molecular target: T4, NIK1 (Arabidopsis thaliana, UniProt Q9LFS4); experiment: Yeast two-hybrid interaction with NIK1-KD; format: binding
T4 construct: The kinase domain of NIK1 (NIK1-KD) (Fontes et al. (2004) Genes Dev. 18:2545); expressed in transfected cells; host or cells: yeast strain MaV203
T4 sequence (Q9LFS4 312-593 limits assumed): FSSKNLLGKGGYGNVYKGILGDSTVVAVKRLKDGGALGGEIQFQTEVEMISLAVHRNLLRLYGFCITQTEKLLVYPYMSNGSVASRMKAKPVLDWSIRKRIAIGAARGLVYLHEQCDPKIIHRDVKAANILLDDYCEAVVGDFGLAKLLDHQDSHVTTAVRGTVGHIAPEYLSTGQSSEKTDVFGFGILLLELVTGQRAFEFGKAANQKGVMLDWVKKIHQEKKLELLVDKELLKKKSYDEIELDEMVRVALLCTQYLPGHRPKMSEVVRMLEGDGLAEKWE
Procedure: as §2

TTL = molecular target: T5, TTL (Arabidopsis thaliana, UniProt Q9LVM5); experiment: Yeast two-hybrid interaction with TTL; format: binding
T5 construct: full length TTL, and full-length BIN2 were cloned into the pDBLeu vector; expressed in transfected cells; host or cells: yeast strain MaV203
T5 sequence (Q9LVM5 1-324): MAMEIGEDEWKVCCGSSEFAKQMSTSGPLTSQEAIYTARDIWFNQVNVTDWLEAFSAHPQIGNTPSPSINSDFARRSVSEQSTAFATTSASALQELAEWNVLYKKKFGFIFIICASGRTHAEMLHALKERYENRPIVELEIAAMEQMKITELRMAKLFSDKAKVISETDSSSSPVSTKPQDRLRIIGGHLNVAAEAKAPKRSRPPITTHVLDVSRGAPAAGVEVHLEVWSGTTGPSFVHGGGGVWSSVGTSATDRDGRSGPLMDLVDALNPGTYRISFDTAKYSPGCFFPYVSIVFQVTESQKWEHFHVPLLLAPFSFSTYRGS
Procedure: as §2

CLV1 = molecular target: T6, CLV1 (Arabidopsis thaliana, UniProt Q9SYQ8); experiment: Yeast two-hybrid interaction with CLV1-KD; format: binding
T6 construct: expressed in transfected cells; host or cells: yeast strain MaV203
T6 sequence (Q9SYQ8 692-968 limits assumed): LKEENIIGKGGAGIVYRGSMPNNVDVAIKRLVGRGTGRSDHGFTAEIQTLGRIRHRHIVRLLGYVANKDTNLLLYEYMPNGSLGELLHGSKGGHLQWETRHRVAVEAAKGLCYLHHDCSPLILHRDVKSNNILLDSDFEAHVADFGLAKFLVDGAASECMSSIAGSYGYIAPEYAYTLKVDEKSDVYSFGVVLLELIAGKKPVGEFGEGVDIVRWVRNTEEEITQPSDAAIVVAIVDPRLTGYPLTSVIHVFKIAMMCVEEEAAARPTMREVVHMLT
Procedure: as §1

[2] = molecular target: T7, intracellular domain of BRI1 (BRI1-KD) (Arabidopsis thaliana, UniProt O22476); experiment: Yeast two-hybrid interaction with BRI1-KD; format: binding
T7 construct: expressed in transfected cells; host or cells: yeast strain MaV203
T7 sequence (O22476 828-1196): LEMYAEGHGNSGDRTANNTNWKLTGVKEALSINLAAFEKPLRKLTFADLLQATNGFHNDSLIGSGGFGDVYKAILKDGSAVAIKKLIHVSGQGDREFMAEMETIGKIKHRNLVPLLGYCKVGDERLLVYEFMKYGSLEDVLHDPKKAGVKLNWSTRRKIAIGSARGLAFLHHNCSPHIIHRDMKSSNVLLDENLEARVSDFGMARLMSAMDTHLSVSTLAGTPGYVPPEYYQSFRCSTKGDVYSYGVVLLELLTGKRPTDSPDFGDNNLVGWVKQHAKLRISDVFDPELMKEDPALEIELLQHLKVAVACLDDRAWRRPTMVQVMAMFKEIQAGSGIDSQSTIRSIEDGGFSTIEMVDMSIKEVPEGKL
Procedure: as §2

Sequence of kinase-inactive BRI1 (mBRI1-KD) (O22476 828-1196 K911E): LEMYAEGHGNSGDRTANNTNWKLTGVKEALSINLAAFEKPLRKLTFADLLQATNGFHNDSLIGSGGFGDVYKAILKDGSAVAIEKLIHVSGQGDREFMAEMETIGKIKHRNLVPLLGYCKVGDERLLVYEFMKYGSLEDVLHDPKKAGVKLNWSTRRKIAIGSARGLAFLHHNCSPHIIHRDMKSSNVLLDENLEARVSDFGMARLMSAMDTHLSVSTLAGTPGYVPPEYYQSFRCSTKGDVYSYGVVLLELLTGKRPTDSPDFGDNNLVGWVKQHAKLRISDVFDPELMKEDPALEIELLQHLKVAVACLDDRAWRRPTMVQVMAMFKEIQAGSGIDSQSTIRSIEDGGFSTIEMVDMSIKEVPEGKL

B1: BKI1: BRI1-interacting protein of 337 amino acids, negative regulator of brassinosteroid signaling (SEQ ID NO:1) (protein, listed as Arabidopsis thaliana)
chain: METNLQQVKNSSQTFSEKQNPKQEASPSPISSTCSSPSHDFSFTISLQPLSSSSKHISPTLRSPSKTTSSYQQTDPFAVDLSPADEIFFHGHLLPLHLLSHLPVSPRTSTGSYNDGFTLPVKDILPDQPTNNNNNTENAITNISTEAKDDNTEDKAEGEIRVKTKPIKSFSLFGLSKWRKGFESNEREQEQQQQKIKKPMSLDLSHAVKKYIRMLFQKRGNGTQFWNRRQTSSYSFSSSLMGPNGNSKTMINGSYNKRDLIRGRRGELFSAPASMRTSPTNSGHLRVSTAGLSSSSGSTSSSSSDSTMEELQAAIQAAIAHCKNSSAVDRDDKVKDS
With B1 the “interaction with kinase-inactive BRI1 relative to kinase active BRI1” value [1] was “stronger”, the “interaction with kinase domain of BAK1 in yeast” value (BAK1) was “not” and the “interaction with kinase domain of BRL3 in yeast” value (BRL3) was “does not interact”. The “interaction with kinase domain of BRL1 in yeast” value (BRL1) was “does not interact”, the “interaction with kinase domain of NIK1 in yeast” value (NIK1) was “not” and the “interaction with TTL in yeast” value (TTL) was “not”. The “interaction with kinase domain of CLV1 in yeast” value (CLV1) was “does not interact” and the “interaction with kinase domain of BRI1 in yeast” value [2] was “associated specifically”.
